The source of these data is patent US20100292083A1 (Ablynx, published 2010).

For orientation: koff means a measure of how fast the partners let go of each other.

To fix the notation:
T1: human IL6R (human, UniProt P08887 20-358, limits assumed)
T1 construct: Antigen of the Biacore experiments; the construct is not described (biotinylated IL6R from Peprotech was used for the selections)
T1 sequence (looked up): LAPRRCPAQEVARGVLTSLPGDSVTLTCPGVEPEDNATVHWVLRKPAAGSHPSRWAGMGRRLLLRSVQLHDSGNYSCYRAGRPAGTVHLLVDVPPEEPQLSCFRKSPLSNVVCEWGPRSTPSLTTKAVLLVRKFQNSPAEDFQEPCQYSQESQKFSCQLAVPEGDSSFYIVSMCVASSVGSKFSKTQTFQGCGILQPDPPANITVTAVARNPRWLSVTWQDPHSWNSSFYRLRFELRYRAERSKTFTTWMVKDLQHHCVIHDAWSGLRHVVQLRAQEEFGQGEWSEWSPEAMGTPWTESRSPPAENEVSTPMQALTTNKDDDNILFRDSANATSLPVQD

B1: 32C9PMP2_C9 (VHH, name in Kabat numbering)
VHH: EVQLVESGGGLVQAGGSLRLSCAASGFTFDDYDIGWFRQAPGKGREGVSGISSSDGNTYYADSVKGRFTISSDNAKNTLYLQMNSLKAEDTAVYYCAREPPDSSWYLDGSPEFFKYWGQGTLVTVSS
notes: Humanized 32C9 variant
B2: 32C9PMP1_H8 (VHH, name in Kabat numbering)
VHH: B1 VHH with F37V, S72R, K87R, A88P
notes: Humanized 32C9 variant
B3: 32C9PMP2_B7 (VHH, name in Kabat numbering)
VHH: B1 VHH with D30S, S72R
notes: Humanized 32C9 variant
B4: 32C9PMP2_A5 (VHH, name in Kabat numbering)
VHH: B1 VHH with A14P, F37V, L79V, K87R, A88P
notes: Humanized 32C9 variant
B5: 32C9PMP1_A2 (VHH, name in Kabat numbering)
VHH: B1 VHH with A14P, F37V, G44E, G47W, L79V
notes: Humanized 32C9 variant
B6: 32C9PMP2_E6 (VHH, name in Kabat numbering)
VHH: B1 VHH with A14P, D30S, G44E, S72R, L79V
notes: Humanized 32C9 variant
B7: 32C9PMP2_D5 (VHH, name in Kabat numbering)
VHH: B1 VHH with A14P, F37V, G44E, R45L, S72R, L79V
notes: Humanized 32C9 variant
B8: 32C9PMP1_H6 (VHH, name in Kabat numbering)
VHH: B1 VHH with A14P, G44E, R45L, S72R, L122Q
notes: Humanized 32C9 variant
B9: 32C9PMP2_B4 (VHH, name in Kabat numbering)
VHH: B1 VHH with A14P, G44E, R45L, L79V, K87R, A88P, L122Q
notes: Humanized 32C9 variant
B10: 32C9PMP2_F5 (VHH, name in Kabat numbering)
VHH: B1 VHH with A14P, G44E, G47W
notes: Humanized 32C9 variant
B11: 32C9PMP2_E7 (VHH, name in Kabat numbering)
VHH: B1 VHH with D30S, G44E, G47W, S72R, K87R, A88P
notes: Humanized 32C9 variant
B12: 32C9PMP1_D5 (VHH, name in Kabat numbering)
VHH: B1 VHH with A14P, F37V, K87R, A88P
notes: Humanized 32C9 variant
B13: 32C9PMP1_F9 (VHH, name in Kabat numbering)
VHH: B1 VHH with A14P, D30S, G44E, G47W, S72R, L79V
notes: Humanized 32C9 variant
B14: 32C9PMP1_B4 (VHH, name in Kabat numbering)
VHH: B1 VHH with A14P, D30S, L122Q
notes: Humanized 32C9 variant
B15: 32C9PMP1_G8 (VHH, name in Kabat numbering)
VHH: B1 VHH with A14P, D30S, L79V
notes: Humanized 32C9 variant
B16: 32C9PMP2_A10 (VHH, name in Kabat numbering)
VHH: B1 VHH with D30S, F37V, S72R, L122Q
notes: Humanized 32C9 variant
B17: 32C9PMP1_G3 (VHH, name in Kabat numbering)
VHH: B1 VHH with A14P, D30S, S72R, K87R, A88P, L122Q
notes: Humanized 32C9 variant
B18: 32C9PMP1_A3 (VHH, name in Kabat numbering)
VHH: B1 VHH with D30S, F37V, S72R, L79V, L122Q
notes: Humanized 32C9 variant
B19: 32C9PMP2_C10 (VHH, name in Kabat numbering)
VHH: B1 VHH with A14P, F37V
notes: Humanized 32C9 variant
B20: 32C9PMP2_C4 (VHH, name in Kabat numbering)
VHH: B1 VHH with G44E, G47W, L79V
notes: Humanized 32C9 variant
B21: 32C9PMP1_E2 (VHH, name in Kabat numbering)
VHH: B1 VHH with D30S, F37V, S72R
notes: Humanized 32C9 variant
B22: 32C9PMP2_D9 (VHH, name in Kabat numbering)
VHH: B1 VHH with A14P, D30S, L79V, K87R, A88P
notes: Humanized 32C9 variant
B23: 32C9PMP1_A4 (VHH, name in Kabat numbering)
VHH: B1 VHH with A14P, G44E, G47W, K87R, A88P, L122Q
notes: Humanized 32C9 variant
B24: 32C9PMP2_D8 (VHH, name in Kabat numbering)
VHH: B1 VHH with A14P, D30S, G44E, S72R, L79V, L122Q
notes: Humanized 32C9 variant
B25: 32C9PMP1_B11 (VHH, name in Kabat numbering)
VHH: B1 VHH with D30S, S72R, L79V, L122Q
notes: Humanized 32C9 variant
B26: 32C9PMP2_F2 (VHH, name in Kabat numbering)
VHH: B1 VHH with F37V, G44E, G47W, K87R, A88P
notes: Humanized 32C9 variant
B27: 32C9PMP1_G9 (VHH, name in Kabat numbering)
VHH: B1 VHH with A14P, F37V, G44E, R45L, L79V
notes: Humanized 32C9 variant
B28: 32C9PMP2_C12 (VHH, name in Kabat numbering)
VHH: B1 VHH with F37V, G44E, G47W
notes: Humanized 32C9 variant
B29: 32C9PMP1_H1 (VHH, name in Kabat numbering)
VHH: B1 VHH with A14P, D30S, F37V, S72R, L79V, L122Q
notes: Humanized 32C9 variant
B30: 32C9PMP1_D7 (VHH, name in Kabat numbering)
VHH: B1 VHH with A14P, F37V, G44E, G47W, S72R
notes: Humanized 32C9 variant
B31: 32C9PMP1_A11 (VHH, name in Kabat numbering)
VHH: B1 VHH with A14P, D30S, F37V, G44E, G47W, L79V
notes: Humanized 32C9 variant
B32: 32C9PMP2_A12 (VHH, name in Kabat numbering)
VHH: B1 VHH with G44E, R45L, L79V, R98A, L122Q
notes: Humanized 32C9 variant
B33: 32C9PMP1_E1 (VHH, name in Kabat numbering)
VHH: B1 VHH with D30S, S72R, R98A
notes: Humanized 32C9 variant
B34: 32C9PMP1_D4 (VHH, name in Kabat numbering)
VHH: B1 VHH with D30S, R98A, L122Q
notes: Humanized 32C9 variant
B35: 32C9PMP2_B5 (VHH, name in Kabat numbering)
VHH: B1 VHH with D30S, F37V, L79V, K87R, A88P, R98A
notes: Humanized 32C9 variant
B36: 32C9PMP2_B3 (VHH, name in Kabat numbering)
VHH: B1 VHH with D30S, G44E, S72R, L79V, R98A
notes: Humanized 32C9 variant
B37: 32C9PMP1_G11 (VHH, name in Kabat numbering)
VHH: B1 VHH with D30S, L79V, K87R, A88P, R98A
notes: Humanized 32C9 variant
B38: 32C9PMP1_B5 (VHH, name in Kabat numbering)
VHH: B1 VHH with A14P, D30S, G44E, G47W, S72R, K87R, A88P, R98A, L122Q
notes: Humanized 32C9 variant
B39: 32C9PMP1_H4 (VHH, name in Kabat numbering)
VHH: B1 VHH with A14P, D30S, R98A, L122Q
notes: Humanized 32C9 variant
B40: 32C9PMP1_G5 (VHH, name in Kabat numbering)
VHH: B1 VHH with A14P, G44E, R45L, S72R, K87R, A88P, R98A
notes: Humanized 32C9 variant
B41: 32C9PMP2_A2 (VHH, name in Kabat numbering)
VHH: B1 VHH with A14P, D30S, S72R, R98A, L122Q
notes: Humanized 32C9 variant
B42: 32C9PMP2_A7 (VHH, name in Kabat numbering)
VHH: B1 VHH with D30S, F37V, S72R, R98A
notes: Humanized 32C9 variant
B43: 32C9PMP1_E6 (VHH, name in Kabat numbering)
VHH: B1 VHH with D30S, F37V, L79V, R98A
notes: Humanized 32C9 variant
B44: 32C9PMP1_A1 (VHH, name in Kabat numbering)
VHH: B1 VHH with D30S, F37V, G44E, G47W, K87R, A88P, R98A
notes: Humanized 32C9 variant
B45: 32C9PMP1_E7 (VHH, name in Kabat numbering)
VHH: B1 VHH with R98A
notes: Humanized 32C9 variant
B46: 32C9PMP1_F8 (VHH, name in Kabat numbering)
VHH: B1 VHH with D30S, G44E, G47W, R98A
notes: Humanized 32C9 variant
B47: 32C9PMP1_B3 (VHH, name in Kabat numbering)
VHH: B1 VHH with A14P, F37V, G44E, R45L, K87R, A88P, R98A
notes: Humanized 32C9 variant
B48: 32C9PMP1_C5 (VHH, name in Kabat numbering)
VHH: B1 VHH with F37V, G44E, R45L, L79V, K87R, A88P, R98A
notes: Humanized 32C9 variant

Residue numbers refer to the chain shown, from its start.

The target in the first assay is T1, human IL6R. In words: SPR (Biacore), periplasmic extract. A general note: Surface plasmon resonance follows binding to a sensor surface in real time, without labels.
For B1, the binding result is reported as “no binding”. Take B2: the binding result is “no binding”. Turning to B3, the binding result is on record as “no binding”. On the same count and under the same terms, the same measure for B4: “no binding”; for B5: “no binding”; for B6: “no binding”.

Regarding B7, the binding result is “no binding”. B8: the binding result is reported as “no binding”. For the molecule B9, the binding result is listed as “no binding”.

On to B10, for which the binding result is listed as “no binding”. The same measure, in the same setting: to B11 belongs “no binding”; to B12, “no binding”; to B13, “no binding”. On to B14, for which the binding result is “no binding”.

Take B15: the binding result is given as “no binding”.

As for B16, the binding result is listed as “no binding”. In the case of B17, the binding result was “no binding”. As for B18, the binding result is on record as “no binding”.

With B19, the binding result is “no binding”. The same measure, in the same setting: the same measure for B20: “no binding”.

Turning to B21, the binding result was “no binding”. With B22, the binding result is on record as “no binding”. Regarding B23, the binding result is “no binding”.

As for B24, the binding result is reported as “no binding”.

Take B25: the binding result was “no binding”. Same read-out and setting: to B26 belongs “no binding”; to B27, “no binding”; to B28, “no binding”. Consider B29, for which the binding result is reported as “no binding”. Still for that read-out and setting: the same measure for B30: “no binding”. Same read-out and setting: the same measure for B31: “no binding”.

The target in another assay is T1, human IL6R. Description: SPR (Biacore), periplasmic extract. This is another data set of the same source. How it is done:
The oligos were dissolved in H₂O and subsequently pooled at a final concentration of 0.4 uM for each oligo. 5 and 1 ul of this mixture was used for assembly PCR in a 50 ul reaction volume. Full-length product was purified using the Qiagen PCR purification kit. The purified PCR product was then digested with SfiI and BsteEII and ligated into the corresponding sites of expression vector pAX51. E. coli TG1 cells were transformed with 2 ul of ligation mixture and plated on LB agar+100 ug/ml ampicillin+2% glucose. Plates were incubated overnight at 37° C. Individual colonies were picked and grown overnight in 2×YT+100 ug/ml ampicillin+2% glucose. Cloned Nanobody genes were amplified directly from these cultures with M13 forward and reverse primers. PCR products were purified and subsequently sequenced. In parallel the same panel of Nanobodies was expressed at 1 ml scale for 4 hours at 37° C. Periplasmic extracts were prepared and without further purification analyzed on Biacore for their ability to bind human IL6R.
Molecule B32 came in with a koff of 0.0029 s⁻¹. B33 yielded a koff of 0.000205 s⁻¹. The same measure, in the same setting: the same measure for B34: 0.000196 s⁻¹; for B35: 0.000803 s⁻¹. Same read-out and setting: to B36 belongs 0.000308 s⁻¹; to B37, 0.000204 s⁻¹; to B38, 0.00196 s⁻¹. On the same count and under the same terms, the same measure for B39: 0.000187 s⁻¹; for B40: 0.00116 s⁻¹; for B41: 0.000192 s⁻¹. Molecule B42 displayed a koff of 0.000792 s⁻¹. On to B43, for which the koff turned out to be 0.000982 s⁻¹. Same read-out and setting: to B44 belongs 0.00515 s⁻¹; to B45, 0.000187 s⁻¹. With B46, the koff worked out at 0.00189 s⁻¹. The same measure, in the same setting: to B47 belongs 0.00346 s⁻¹; to B48, 0.0052 s⁻¹.
